Measured values from article PMC6451096, “Molecular basis for transfer RNA recognition by the double-stranded RNA-binding domain of human dihydrouridine synthase 2”.

Legend:
[1] = molecular target: T1, hDus2 full length (Homo sapiens, UniProt Q9NX74 1-493); assay: EMSA; same affinity as for full tRNA; value only in Fig S12e; EMSA: 50 mM Tris-HCl pH 8, 10% glycerol, 5 mM DTT, 150 mM ammonium acetate, 1 uM tRNALys3, 20 min room temperature; 6% native PAGE at 4 C; settings: protein: recombinant; tRNA fold, anticodon stem removed
T1 sequence (Q9NX74 whole entry): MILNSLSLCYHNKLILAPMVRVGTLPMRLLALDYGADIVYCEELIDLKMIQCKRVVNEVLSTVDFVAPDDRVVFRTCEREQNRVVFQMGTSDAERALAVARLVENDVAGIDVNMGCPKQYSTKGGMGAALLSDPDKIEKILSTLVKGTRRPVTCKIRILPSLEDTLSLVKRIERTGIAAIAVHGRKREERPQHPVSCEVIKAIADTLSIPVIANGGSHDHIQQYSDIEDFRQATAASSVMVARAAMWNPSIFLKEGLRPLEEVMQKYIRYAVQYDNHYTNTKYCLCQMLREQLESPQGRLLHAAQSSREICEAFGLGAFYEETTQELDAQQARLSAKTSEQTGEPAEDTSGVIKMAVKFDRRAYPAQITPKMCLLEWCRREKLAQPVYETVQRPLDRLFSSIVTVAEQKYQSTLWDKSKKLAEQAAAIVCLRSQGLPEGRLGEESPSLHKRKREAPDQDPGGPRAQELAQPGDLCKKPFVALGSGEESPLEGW

[2] = molecular target: T1, hDus2 full length; assay: EMSA; same affinity as for deltaACS; value only in Fig S12e; EMSA: 50 mM Tris-HCl pH 8, 10% glycerol, 5 mM DTT, 150 mM ammonium acetate, 1 uM tRNALys3, 20 min room temperature; 6% native PAGE at 4 C; settings: protein: recombinant; tRNA fold
[3] = molecular target: T2, hDus2 dsRBD K419A-K420A (Homo sapiens, UniProt Q9NX74 339-451, K419A;K420A); assay: EMSA; EMSA: 50 mM Tris-HCl pH 8, 10% glycerol, 5 mM DTT, 150 mM ammonium acetate, 1 uM tRNALys3, 20 min room temperature; 6% native PAGE at 4 C; settings: protein: recombinant; label: 15N for tRNA-observed NMR; tRNA fold
T2 sequence: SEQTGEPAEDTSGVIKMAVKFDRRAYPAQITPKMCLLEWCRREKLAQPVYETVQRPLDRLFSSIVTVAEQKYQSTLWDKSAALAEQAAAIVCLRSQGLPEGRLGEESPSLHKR

[4] = molecular target: T3, hDus2 dsRBD R361A-R362A (Homo sapiens, UniProt Q9NX74 339-451, R361A;R362A); assay: as above; settings: protein: recombinant; label: 15N for tRNA-observed NMR; tRNA fold
T3 sequence: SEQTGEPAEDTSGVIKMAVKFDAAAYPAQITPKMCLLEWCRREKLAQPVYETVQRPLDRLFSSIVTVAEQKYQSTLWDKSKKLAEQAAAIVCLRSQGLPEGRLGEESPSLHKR

[5] = molecular target: T4, hDus2 dsRBD K420A (Homo sapiens, UniProt Q9NX74 339-451, K420A); assay: as above; settings: protein: recombinant; label: 15N for tRNA-observed NMR; tRNA fold
T4 sequence: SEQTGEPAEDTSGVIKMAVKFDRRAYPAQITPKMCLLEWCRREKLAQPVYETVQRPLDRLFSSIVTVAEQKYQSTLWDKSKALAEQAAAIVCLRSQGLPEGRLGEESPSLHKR

[6] = molecular target: T5, hDus2 dsRBD R397A (Homo sapiens, UniProt Q9NX74 339-451, R397A); assay: as above; settings: protein: recombinant; label: 15N for tRNA-observed NMR; tRNA fold
T5 sequence: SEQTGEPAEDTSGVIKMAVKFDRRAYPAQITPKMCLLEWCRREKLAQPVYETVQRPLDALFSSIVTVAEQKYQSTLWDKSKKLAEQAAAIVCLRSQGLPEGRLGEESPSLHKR

[7] = molecular target: T6, hDus2 dsRBD K371A (Homo sapiens, UniProt Q9NX74 339-451, K371A); assay: as above; settings: protein: recombinant; label: 15N for tRNA-observed NMR; tRNA fold
T6 sequence: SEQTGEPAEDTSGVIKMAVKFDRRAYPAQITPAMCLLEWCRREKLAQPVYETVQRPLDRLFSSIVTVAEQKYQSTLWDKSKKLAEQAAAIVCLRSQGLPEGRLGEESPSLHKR

[8] = molecular target: T7, hDus2 dsRBD K419A (Homo sapiens, UniProt Q9NX74 339-451, K419A); assay: as above; settings: protein: recombinant; label: 15N for tRNA-observed NMR; tRNA fold
T7 sequence: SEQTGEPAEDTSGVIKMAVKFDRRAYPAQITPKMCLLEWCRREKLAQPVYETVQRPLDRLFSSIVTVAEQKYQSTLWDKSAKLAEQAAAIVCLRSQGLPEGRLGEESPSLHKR

[9] = molecular target: T1, hDus2 full length; assay: SEC-MALLS; 1:1 protein:RNA; EMSA: 50 mM Tris-HCl pH 8, 10% glycerol, 5 mM DTT, 150 mM ammonium acetate, 1 uM tRNALys3, 20 min room temperature; 6% native PAGE at 4 C; settings: protein: recombinant; label: 15N for tRNA-observed NMR; tRNA fold
[10] = molecular target: T8, hDus2 dsRBD R362A (Homo sapiens, UniProt Q9NX74 339-451, R362A); assay: EMSA; no impact of mutation; EMSA: 50 mM Tris-HCl pH 8, 10% glycerol, 5 mM DTT, 150 mM ammonium acetate, 1 uM tRNALys3, 20 min room temperature; 6% native PAGE at 4 C; settings: protein: recombinant; label: 15N for tRNA-observed NMR; tRNA fold
T8 sequence: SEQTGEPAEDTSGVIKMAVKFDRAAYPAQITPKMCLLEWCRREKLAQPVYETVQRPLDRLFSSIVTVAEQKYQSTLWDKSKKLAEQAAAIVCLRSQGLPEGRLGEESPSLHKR

[11] = molecular target: T9, hDus2 dsRBD WT (Homo sapiens, UniProt Q9NX74 339-451); assay: EMSA; apparent Kd shown only in histogram; EMSA: 50 mM Tris-HCl pH 8, 10% glycerol, 5 mM DTT, 150 mM ammonium acetate, 1 uM tRNALys3, 20 min room temperature; 6% native PAGE at 4 C; settings: protein: recombinant; label: 15N for tRNA-observed NMR; tRNA fold
T9 sequence: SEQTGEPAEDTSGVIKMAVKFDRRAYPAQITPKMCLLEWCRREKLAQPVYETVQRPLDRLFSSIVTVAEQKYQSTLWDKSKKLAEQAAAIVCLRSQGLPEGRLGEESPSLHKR

[12] = molecular target: T10, hDus2 dsRBD R361A (Homo sapiens, UniProt Q9NX74 339-451, R361A); assay: EMSA; EMSA: 50 mM Tris-HCl pH 8, 10% glycerol, 5 mM DTT, 150 mM ammonium acetate, 1 uM tRNALys3, 20 min room temperature; 6% native PAGE at 4 C; settings: protein: recombinant
T10 sequence: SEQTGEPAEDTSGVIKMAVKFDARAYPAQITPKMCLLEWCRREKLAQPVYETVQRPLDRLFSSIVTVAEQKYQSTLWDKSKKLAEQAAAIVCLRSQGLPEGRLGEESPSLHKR

[13] = molecular target: T3, hDus2 dsRBD R361A-R362A; assay: as above; settings: protein: recombinant
[14] = molecular target: T9, hDus2 dsRBD WT; assay: X-ray crystallography; 20 mM MgCl2 in reservoir; EMSA: 50 mM Tris-HCl pH 8, 10% glycerol, 5 mM DTT, 150 mM ammonium acetate, 1 uM tRNALys3, 20 min room temperature; 6% native PAGE at 4 C; settings: protein: recombinant

B1: tRNAPhe-deltaACS transcript (structured_RNA)
RNA: GCGGAUUUAGCUCAGUUGGGAGAGCGCCGAAGGGAGGUCCUGUGUUCGAUCCACAGAAUUCGCACCA
B1: binds [1].

B2: tRNAPhe transcript (structured_RNA)
RNA: GCGGAUUUAGCUCAGUUGGGAGAGCGCCAGACUGAAGAUCUGGAGGUCCUGUGUUCGAUCCACAGAAUUCGCACCA
B2: binds [2].

B3: human tRNALys3 (structured_RNA)
RNA: GCCCGGAUAGCUCAGUCGGUAGAGCAUCAGACUUUUAAUCUGAGGGUCCAGGGUUCAAGUCCCUGUUCGGGCGCCA
modifications: modified in vivo in E. coli (Psi39 mentioned)
B3 was tested, and the binding signal [3] was ~17 fold lower affinity than WT, the binding signal [4] was ~6 fold lower affinity than WT and the binding signal [5] was > 4 fold lower affinity than WT. The binding signal [6] was ~2 fold lower affinity than WT, the binding signal [7] was ~8 fold lower affinity than WT and the binding signal [8] was > 4 fold lower affinity than WT. B3: binds [9]; binds [10]; binds [11].

B4: 11-nt palindromic dsRNA (dsRNA)
RNA 1: CGAACUUCGCG
RNA 2: CGAACUUCGCG
B4 was tested, and the binding signal [12] was ~3.7 fold lower affinity than same mutant for tRNA, the binding signal [13] was ~1 affinity relative to same mutant for tRNA (similar) and the binding result [14] was “binds”.
